Experimental data published in PMC10132440.

Columns and labels:
[1] = molecular target: PN45545 TCR-CD3, strep-tagged, detergent-solubilized (SPR reagent) (humanized VelociT mouse | not stated) (UniProt P07766); assay: SPR; conditions: peptide-MHC
[2] = molecular target: PN45428 TCR-CD3, strep-tagged, detergent-solubilized (SPR reagent) (humanized VelociT mouse | not stated) (UniProt P07766); assay: SPR; conditions: peptide-MHC

Substance: single-chain disulfide-stabilized MAGEA4 (230-239) pMHC (from UniProt P61769 21-119)
- Kd [1]: 6.1 µM

Substance: single-chain disulfide-stabilized MAGEA8 (232-241) pMHC (from UniProt P61769 21-119)
- Kd [2]: 260 µM
- Kd [1]: 420 µM
